In patent US20230272029A1, “CO-AGONISTS AT GLP-1 AND GIP RECEPTORS SUITABLE FOR ORAL DELIVERY” (Novo Nordisk A/S, priority 2020, published 2023):
Starred links: 1 amine or outer side, 2 acyl side, 3 side chain; linkers in the order of their positions; H or OH if unused. Non-standard residues stand in square brackets, D forms with d. Groups on a side chain read outwards from the residue. No end group written: not given here. *: point of attachment. C20 diacid = O=C(O)CCCCCCCCCCCCCCCCCCC(=O)*; C18 diacid = O=C(O)CCCCCCCCCCCCCCCCC(=O)*; γGlu = O=C(O)[C@H](CCC(=O)[*:2])N[*:1]; εLys = N[C@@H](CCCCN[*:1])C(=O)[*:2]; Aib = CC(C)(N)C(=O)O

T1: human GIP receptor (human, UniProt P48546 22-466)
T1 sequence (looked up): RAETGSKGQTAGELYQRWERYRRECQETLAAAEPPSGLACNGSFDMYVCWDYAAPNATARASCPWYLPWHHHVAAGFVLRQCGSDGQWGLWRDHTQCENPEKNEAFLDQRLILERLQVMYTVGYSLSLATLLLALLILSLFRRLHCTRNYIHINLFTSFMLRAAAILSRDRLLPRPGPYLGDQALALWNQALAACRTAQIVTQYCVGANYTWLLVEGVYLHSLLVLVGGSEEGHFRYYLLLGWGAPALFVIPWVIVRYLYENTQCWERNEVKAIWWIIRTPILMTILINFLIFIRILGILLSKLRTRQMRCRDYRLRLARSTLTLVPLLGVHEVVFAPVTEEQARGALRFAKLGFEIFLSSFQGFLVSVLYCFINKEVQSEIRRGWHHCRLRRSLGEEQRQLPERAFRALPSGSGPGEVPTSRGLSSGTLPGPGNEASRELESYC


Key:
human GLP-1 receptor = human GLP-1 receptor (human, UniProt P43220 24-463); test: cell-based or functional assay
human GIP receptor = molecular target: T1, human GIP receptor; test: cell-based or functional assay

Binder | hGLP-1R, CRE Luc 0% HSA EC50 (pM) (human GLP-1 receptor) | hGLP-1R, CRE Luc 1% HSA EC50 (pM) (human GLP-1 receptor) | hGIPR, CRE Luc 0% HSA EC50 (pM) (human GIP receptor) | hGIPR, CRE Luc 1% HSA EC50 (pM) (human GIP receptor)
Y[Aib]EGTFTSDYSIALEK([εLys-εLys-γGlu-C18 diacid])QAAREFINWLLAGGPSSGAPPPS-OH (N-terminus assumed; SMILES CC[C@H](C)[C@H](NC(=O)[C@H](CO)NC(=O)[C@H](Cc1ccc(O)cc1)NC(=O)[C@H](CC(=O)O)NC(=O)[C@H](CO)NC(=O)[C@@H](NC(=O)[C@H](Cc1ccccc1)NC(=O)[C@@H](NC(=O)CNC(=O)[C@H](CCC(=O)O)NC(=O)C(C)(C)NC(=O)[C@@H](N)Cc1ccc(O)cc1)[C@@H](C)O)[C@@H](C)O)C(=O)N[C@@H](C)C(=O)N[C@@H](CC(C)C)C(=O)N[C@@H](CCC(=O)O)C(=O)N[C@@H](CCCCNC(=O)[C@@H](N)CCCCNC(=O)[C@@H](N)CCCCNC(=O)CC[C@H](NC(=O)CCCCCCCCCCCCCCCCC(=O)O)C(=O)O)C(=O)N[C@@H](CCC(N)=O)C(=O)N[C@@H](C)C(=O)N[C@@H](C)C(=O)N[C@@H](CCCNC(=N)N)C(=O)N[C@@H](CCC(=O)O)C(=O)N[C@@H](Cc1ccccc1)C(=O)N[C@H](C(=O)N[C@@H](CC(N)=O)C(=O)N[C@@H](Cc1c[nH]c2ccccc12)C(=O)N[C@@H](CC(C)C)C(=O)N[C@@H](CC(C)C)C(=O)N[C@@H](C)C(=O)NCC(=O)NCC(=O)N1CCC[C@H]1C(=O)N[C@@H](CO)C(=O)N[C@@H](CO)C(=O)NCC(=O)N[C@@H](C)C(=O)N1CCC[C@H]1C(=O)N1CCC[C@H]1C(=O)N1CCC[C@H]1C(=O)N[C@@H](CO)C(=O)O)[C@@H](C)CC) [Compound No. 14] | 5.4 | 306 | 11.6 | 580
Y[Aib]EGTFTSDYSIYLEK([εLys-εLys-γGlu-C18 diacid])QAAREFIEWLLRGGPSSGAPPPS-OH (N-terminus assumed; SMILES CC[C@H](C)[C@H](NC(=O)[C@H](Cc1ccccc1)NC(=O)[C@H](CCC(=O)O)NC(=O)[C@H](CCCNC(=N)N)NC(=O)[C@H](C)NC(=O)[C@H](C)NC(=O)[C@H](CCC(N)=O)NC(=O)[C@H](CCCCNC(=O)[C@@H](N)CCCCNC(=O)[C@@H](N)CCCCNC(=O)CC[C@H](NC(=O)CCCCCCCCCCCCCCCCC(=O)O)C(=O)O)NC(=O)[C@H](CCC(=O)O)NC(=O)[C@H](CC(C)C)NC(=O)[C@H](Cc1ccc(O)cc1)NC(=O)[C@@H](NC(=O)[C@H](CO)NC(=O)[C@H](Cc1ccc(O)cc1)NC(=O)[C@H](CC(=O)O)NC(=O)[C@H](CO)NC(=O)[C@@H](NC(=O)[C@H](Cc1ccccc1)NC(=O)[C@@H](NC(=O)CNC(=O)[C@H](CCC(=O)O)NC(=O)C(C)(C)NC(=O)[C@@H](N)Cc1ccc(O)cc1)[C@@H](C)O)[C@@H](C)O)[C@@H](C)CC)C(=O)N[C@@H](CCC(=O)O)C(=O)N[C@@H](Cc1c[nH]c2ccccc12)C(=O)N[C@@H](CC(C)C)C(=O)N[C@@H](CC(C)C)C(=O)N[C@@H](CCCNC(=N)N)C(=O)NCC(=O)NCC(=O)N1CCC[C@H]1C(=O)N[C@@H](CO)C(=O)N[C@@H](CO)C(=O)NCC(=O)N[C@@H](C)C(=O)N1CCC[C@H]1C(=O)N1CCC[C@H]1C(=O)N1CCC[C@H]1C(=O)N[C@@H](CO)C(=O)O) [Compound No. 12] | 4 | 54.4 | 9 | 71.5
Y[Aib]EGTFTSDYSILLEK([εLys-εLys-γGlu-C18 diacid])QAAREFINWLLAGGPSSGAPPPS-OH (N-terminus assumed; SMILES CC[C@H](C)[C@H](NC(=O)[C@H](Cc1ccccc1)NC(=O)[C@H](CCC(=O)O)NC(=O)[C@H](CCCNC(=N)N)NC(=O)[C@H](C)NC(=O)[C@H](C)NC(=O)[C@H](CCC(N)=O)NC(=O)[C@H](CCCCNC(=O)[C@@H](N)CCCCNC(=O)[C@@H](N)CCCCNC(=O)CC[C@H](NC(=O)CCCCCCCCCCCCCCCCC(=O)O)C(=O)O)NC(=O)[C@H](CCC(=O)O)NC(=O)[C@H](CC(C)C)NC(=O)[C@H](CC(C)C)NC(=O)[C@@H](NC(=O)[C@H](CO)NC(=O)[C@H](Cc1ccc(O)cc1)NC(=O)[C@H](CC(=O)O)NC(=O)[C@H](CO)NC(=O)[C@@H](NC(=O)[C@H](Cc1ccccc1)NC(=O)[C@@H](NC(=O)CNC(=O)[C@H](CCC(=O)O)NC(=O)C(C)(C)NC(=O)[C@@H](N)Cc1ccc(O)cc1)[C@@H](C)O)[C@@H](C)O)[C@@H](C)CC)C(=O)N[C@@H](CC(N)=O)C(=O)N[C@@H](Cc1c[nH]c2ccccc12)C(=O)N[C@@H](CC(C)C)C(=O)N[C@@H](CC(C)C)C(=O)N[C@@H](C)C(=O)NCC(=O)NCC(=O)N1CCC[C@H]1C(=O)N[C@@H](CO)C(=O)N[C@@H](CO)C(=O)NCC(=O)N[C@@H](C)C(=O)N1CCC[C@H]1C(=O)N1CCC[C@H]1C(=O)N1CCC[C@H]1C(=O)N[C@@H](CO)C(=O)O) [Compound No. 15] | 5 | 130 | 7.1 | 138
Y[Aib]EGTFTSDYSIYLEK([εLys-εLys-γGlu-C18 diacid])QAAREFIEWLLRGGPESGAPPPS-OH (N-terminus assumed; SMILES CC[C@H](C)[C@H](NC(=O)[C@H](Cc1ccccc1)NC(=O)[C@H](CCC(=O)O)NC(=O)[C@H](CCCNC(=N)N)NC(=O)[C@H](C)NC(=O)[C@H](C)NC(=O)[C@H](CCC(N)=O)NC(=O)[C@H](CCCCNC(=O)[C@@H](N)CCCCNC(=O)[C@@H](N)CCCCNC(=O)CC[C@H](NC(=O)CCCCCCCCCCCCCCCCC(=O)O)C(=O)O)NC(=O)[C@H](CCC(=O)O)NC(=O)[C@H](CC(C)C)NC(=O)[C@H](Cc1ccc(O)cc1)NC(=O)[C@@H](NC(=O)[C@H](CO)NC(=O)[C@H](Cc1ccc(O)cc1)NC(=O)[C@H](CC(=O)O)NC(=O)[C@H](CO)NC(=O)[C@@H](NC(=O)[C@H](Cc1ccccc1)NC(=O)[C@@H](NC(=O)CNC(=O)[C@H](CCC(=O)O)NC(=O)C(C)(C)NC(=O)[C@@H](N)Cc1ccc(O)cc1)[C@@H](C)O)[C@@H](C)O)[C@@H](C)CC)C(=O)N[C@@H](CCC(=O)O)C(=O)N[C@@H](Cc1c[nH]c2ccccc12)C(=O)N[C@@H](CC(C)C)C(=O)N[C@@H](CC(C)C)C(=O)N[C@@H](CCCNC(=N)N)C(=O)NCC(=O)NCC(=O)N1CCC[C@H]1C(=O)N[C@@H](CCC(=O)O)C(=O)N[C@@H](CO)C(=O)NCC(=O)N[C@@H](C)C(=O)N1CCC[C@H]1C(=O)N1CCC[C@H]1C(=O)N1CCC[C@H]1C(=O)N[C@@H](CO)C(=O)O) [Compound No. 13] | 7.4 | 204 | 13.9 | 257
Y[Aib]EGTFTSDYSIYLEK([εLys-εLys-γGlu-C20 diacid])QAAQEFVNWLLAGGPSSGAPPPS-NH2 (N-terminus assumed; SMILES CC[C@H](C)[C@H](NC(=O)[C@H](CO)NC(=O)[C@H](Cc1ccc(O)cc1)NC(=O)[C@H](CC(=O)O)NC(=O)[C@H](CO)NC(=O)[C@@H](NC(=O)[C@H](Cc1ccccc1)NC(=O)[C@@H](NC(=O)CNC(=O)[C@H](CCC(=O)O)NC(=O)C(C)(C)NC(=O)[C@@H](N)Cc1ccc(O)cc1)[C@@H](C)O)[C@@H](C)O)C(=O)N[C@@H](Cc1ccc(O)cc1)C(=O)N[C@@H](CC(C)C)C(=O)N[C@@H](CCC(=O)O)C(=O)N[C@@H](CCCCNC(=O)[C@@H](N)CCCCNC(=O)[C@@H](N)CCCCNC(=O)CC[C@H](NC(=O)CCCCCCCCCCCCCCCCCCC(=O)O)C(=O)O)C(=O)N[C@@H](CCC(N)=O)C(=O)N[C@@H](C)C(=O)N[C@@H](C)C(=O)N[C@@H](CCC(N)=O)C(=O)N[C@@H](CCC(=O)O)C(=O)N[C@@H](Cc1ccccc1)C(=O)N[C@H](C(=O)N[C@@H](CC(N)=O)C(=O)N[C@@H](Cc1c[nH]c2ccccc12)C(=O)N[C@@H](CC(C)C)C(=O)N[C@@H](CC(C)C)C(=O)N[C@@H](C)C(=O)NCC(=O)NCC(=O)N1CCC[C@H]1C(=O)N[C@@H](CO)C(=O)N[C@@H](CO)C(=O)NCC(=O)N[C@@H](C)C(=O)N1CCC[C@H]1C(=O)N1CCC[C@H]1C(=O)N1CCC[C@H]1C(=O)N[C@@H](CO)C(N)=O)C(C)C) [Compound No. 1] | 7.8 | 1660 | 2.8 | 172
